Laboratory results as given in patent publication US20050154189A1 (MAXYGEN, published 2005).

Legend:
Soluble CTLA-4-Ig [1] = target: T1, Soluble CTLA-4-Ig (human, UniProt P16410 36-161, FITC-conjugated in the two-colour FACS assays; unlabelled and detected with FITC goat anti-human IgG in the concentration-dependent assay); experiment: FACS of transfected cells, Round 1 clones
T1 construct: extracellular domain; Bought from R&D Systems; also called sCTLA-4-Ig; CTLA-4-Ig Fc; not shown: Fc portion of human IgG1

Soluble CD28-Ig [2] = target: T2, Soluble CD28-Ig (human, UniProt P10747 19-152, biotin-conjugated (NHS-biotin) in the labelled-ligand FACS assays); experiment: two-colour FACS profile on transfected cells; score of preference for CD28-Ig over CTLA-4-Ig vs WT hB7-1
T2 construct: extracellular domain; Bought from R&D Systems; also called sCD28-Ig; CD28-Ig Fc; not shown: Fc portion of human IgG1

Soluble CTLA-4-Ig [3] = target: T1, Soluble CTLA-4-Ig; experiment: receptor binding assay, data not shown
Soluble CD28-Ig [4] = target: T2, Soluble CD28-Ig; experiment: receptor binding assay, data not shown
Soluble CTLA-4-Ig [5] = target: T1, Soluble CTLA-4-Ig; experiment: two-colour FACS on transfected 293 cells
Method: (§1) Biotin binds the fluorescence marker Streptavidin-PE. (R-PE has an excitation maximum of 565 nanometers (nm) and an emission maximum of 578 nm. B-PE has excitation and emission maxima of 545 nm and 578 nm, respectively. FITC has excitation and emission maxima of 494 and 519, respectively.) The cells were again washed twice and resuspended in 200 μl medium with 5 μg/ml propidium iodide (PI). The cells were then analyzed using a FACSCalibur flow cytometer and CellQuest software (BDIS, San Jose, Calif.). Cell sorting was performed by flow-cytometry based cell sorting screening methods using FACS (Fluorescence-Activated Cell Sorting) Vantage SE cell sorter (BDIS) (Becton Dickinson; San Jose, Calif.). The staining concentration was determined for each labeled protein to provide a maximal Mean Fluorescence Intensity (MFI) and minimal background signal (e.g., optimum staining concentration was the concentration per 10⁶ cells).

Soluble CD28-Ig [6] = target: T2, Soluble CD28-Ig; experiment: two-colour FACS on transfected 293 cells
Method: as §1

human CD28 receptor = human CD28 receptor (human, UniProt P10747 19-220); experiment: cell-based or functional assay

T1 sequence (P16410 36-161): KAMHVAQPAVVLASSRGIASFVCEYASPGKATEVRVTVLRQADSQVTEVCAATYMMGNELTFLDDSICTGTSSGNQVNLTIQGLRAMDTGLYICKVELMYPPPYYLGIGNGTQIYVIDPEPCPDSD

binding result (Soluble CTLA-4-Ig [1])	Binding Score (Soluble CD28-Ig [2])	binding result (Soluble CTLA-4-Ig [3])	binding result (Soluble CD28-Ig [4])	further results	Binder
binds	1	–	–	–	Round 1 CD28BP-84 (ligand, also called R1clone 84; Clone 84) GISQVTKSVKEMAALSCDYNISIDELARMRIYWQKDQQMVLSIISGQVEVWPEYKNRTFPDIINNLSLMILALRLSDKGTYTCVVQKNENGSFRREHLTSVTLSIRADSPVPSITDIGHPAPNVKRIRCSASGGFPEPRLAWMEDGEELNAVNTTVDQDLDTELYSVSSELDFNVTNNHSIVCLIKYGELSVSQIFPWSKPKQEPPIDQLPFWVIIPVSGALVLTAVVLYCLACRHVARWKRTRRNEETVGTERLSPIYLGSAQSSG
binds	1	–	–	–	Round 1 CD28BP-118 (ligand, also called R1clone 118; Clone 118) GISQVTKSVKEMAALSCDYNISIDELARMRIYWQKDQQMVLSIISGQVEVWPEYKNRTFPDIINNLSLMILALRLSDKGTYTCVVQKNENGSFRREHLTSVTLSIRADFPVPSITDIGHPAPNVKRIRCSASGDFPEPRLAWMEDGEELNAVNTTVDQDLDTELYSVSSELDFNVTNNHSIVCLIKYGELSVSQIFPWSKPKQEPPIDQLPFWVIIPVSGALVLTAVVLYCLACRHVARWKRTRRNEETVGTERLSPIYLGSAQSSG
–	–	binds	binds	–	Baboon B7-1 (ligand, Wild-type parental gene expressed on transfected 293 cells) VIHVTKEVKEVATLSCGHNVSVEELAQTRIYWQKEKKMVLTMMSGDMNIWPEYKNRTIFDITNNLSIVILALRPSDEGTYECVVLKYEKDAFKREHLAEVMLSVKADFPTPSITDFEIPPSNIRRIICSTSGGFPEPHLFWLENGEELNAINTTVSQDPGTELYTVSSKLDFNMTTNHSFVCLIKYGHLRVNQTFNWNTPKQEHFPDNLLPSWAITLISVNGIFVICCLTYCFAPRCRERRRNETLRRESVRPV
–	–	–	–	binding result (Soluble CTLA-4-Ig [5]): binds; binding result (Soluble CD28-Ig [6]): binds	Rhesus B7-1 (ligand, Wild-type parental gene expressed on transfected 293 cells; also called rhesus monkey B7-1) VIHVTKEVKEVATLSCGHNVSVEELAQTRIYWQKEKKMVLTMMSGDMNIWPEYKNRTIFDITNNLSIVILALRPSDEGTYECVVLKYEKDAFKREHLAEVMLSVKADFPTPSITDFEIPPSNIRRIICSTSGGFPEPRLSWLENGEELNAISTTVSQDPETELYTVSSKLDFNMTTNHSFMCLIKYGHLRVNQTFNWNTPKQEHFPDNLLPSWAITLISVNGIFVICCLTHCFAPRCRERRRNETLRRESVRPV
–	–	binds	binds	–	Orangutan B7-1 (ligand, Wild-type parental gene expressed on transfected 293 cells) VIHVTKEVKEVATLSCGHNVSVEELAQTRIYWQKEKKMVLTMMSGDMNIWPEYKNRTIFDITNNLSIVILALRPSDEGTYECVVLKYEKDAFKREHLAEVTLSVKADFPTPSISDFEIPTSNIRRMICSTSGGFPEPHLSWLENGEELNAISTTVSQDPETELYAVSSKLDFNMTTNHSFMCLIKYGHLRVNQTFNWNTPKQEHFPDNLLPSWAITLISVNGIFVICCLTYCFAPRCRERRSNERLRRESVRPV
–	2	–	–	T cell proliferation (3H-thymidine incorporation) of purified human T cells with anti-CD3 mAbs (human CD28 receptor): ~10 fold	Round 2 CD28BP-15 (ligand, Full-length clone on transiently or stably transfected 293 cells; The end 303 is the end of the entry as counted; also called R2 CD28BP-15; clone 15) ITPKSVTKRVKETVMLSCDYNTSTEELTSLRIYWQKDSKMVLAILPGKVQVWPEYKNRTITDMNDNPRIVILALRPSDSGTYTCVIQKPVLKGAYKLEHLASVRLMIRADFPVPTINDLGNPSPNIRRLICSTSGGFPRPHLYWLENGEELNATNTTVSQDPGTELYMISSELDFNVTNNHSIVCLIKYGELSVSQIFPWSKPKQEPPIDQLPFWVIIPVSGALVLTAVVLYCLACRHVARWKRTRRNEETVGTERLSPIYLGSAQSSG
